Measured values from article PMC2700067.
Where two headings read alike, the source gives them in different places.

Key:
Gag-CY (HIV-1) [1] = experiment: split reporter (BiFC, NanoBiT); BiFC quantified by flow cytometry: 293T cells co-transfected with 0.25 μg of each BiFC construct and mRFP1, harvested about 14 h after transfection and fixed; percent of mRFP+ cells that are YFP+, and mean intensity of YFP+ cells
Gag-CY (HIV-1) [2] = experiment: as above; remark: listed apart in the source

Gag-NY (natural protein) was tested, and the percent of mRFP+ cells that are YFP+ (BiFC) (Gag-CY (HIV-1) [1]) was 3.3% and the percent of mRFP+ cells that are YFP+ (BiFC) (Gag-CY (HIV-1) [2]) was 3.5%.
